Results from patent publication US20050154189A1 (MAXYGEN, published 2005).

molecular target: T1, Soluble CD28-Ig (human, UniProt P10747 19-152, biotin-conjugated (NHS-biotin) in the labelled-ligand FACS assays); test: two-colour FACS profile on transfected cells; score of preference for CD28-Ig over CTLA-4-Ig vs WT hB7-1
T1 construct: extracellular domain; Bought from R&D Systems; also called sCD28-Ig; CD28-Ig Fc; not shown: Fc portion of human IgG1

Binder	Binding Score
Round 2 CD28BP-14 (ligand) GISQVTKSVKEMAALSCDYNISIDELARMRIYWQKDQQMVLSIISGQVEVWPEYKNRTITDMNDNPRIVILALRLSDSGTYTCVIQKPVLKGAYKLEHLASVRLMIRADFPVPTINDLGNPSPNIRRLICSTSGGFPRPHLYWLENGEELNATNTTVSQDPGTELYMISSELDFNVTNNHSIVCLIKYGELSVSQIFPWSKPKQEPPIDQLPFWVIIPVSGALVLTAVVLYCLACRHVARWKRTRRNEETVGTERLSPIYLGSAQSSG	2
Round 2 CD28B6-6 (ligand) ITPKSVTKRVKETVMLSCDYSTSTEELTSLRIYWQKDSKMVLAILPGKVQVWPEYKNRTITDMNDNPRIVILALRLSDKGTYTCVIQKPVLKGAYKLEHLTSVTLSIRADFPVPSITDIGHPAPNVKRIRCSASGGFPEPRLAWMEDGEELNAVNTTVDQDLDTELYSVSSELDFNATNNHSIVCLIKYGELSVSQIFPWSKPKQEPPIDQLPFWVIVPVSGALVLTAVVLYCLACRHVAR	1
Round 2 CD28D12-5 (ligand) ITPKSVTKRVKETVMLSCDYSTSTEELTSLRIYWQKDSKMVLAILPGKVQVWPEYKNRTITDMNDNPRIVILALRLSDSGTYTCVIQKPVLKGAYKLEHLASVRLMIRADFPVPSITDIGHPAPNVKRIRCSASGDFPEPRLAWMEDGEELNAVNTTVLDTELYSVSSELDFNVTNNHSIVCLIKYGELSVSQIFPWSKPKQEPPIDQLPFWVIIPVSGALVLTAVVLYCLACRHVARWKRTRRNEETVGTERLSPIYLGSAQPSG	2
Round 2 CD28C7-3 (ligand) ITPKSVTKRVKETVMLSCDYSTSTEELTSLRIYWQKDSKMVLAILPGKVQVWPEYKNRTITDMNDNPRIVILALRLSDSGTYTCVIQKPDLKGAYKLEHLTSVRLMIRADFPVPSITDIGHPAPNVKRIRCSASGDFPEPRLAWMEDGEELNAVNTTVDQDLDTELYSVSSELDFNVTNNHSIVCLIKYGELSVSQIFPWSKPKQEPPIDQLPFWVIIPVSGALVLTAVVLYCLACRHVARWKRTRRNEETVGTERLSPIYLGSAQSSG	1
Round 2 CD28G1-9 (ligand) ITPKSVTKRVKETVMLSCDYNTSTEELTSLRIYWQKDSKMVLAILPGKVQVWPEYKNRTITDMNDNPRIVILALRLSDSGTYTCVIQKPVLKGAYKLEHLTSVRLMIRADFPVPSITDIGHPAPNVKRIRCSASGGFPEPRLAWMEDGEELNAVNTTVDQDLDTELYSVSSELDFNVTNNHSIVCLIKYGELSVSQIFPWSKPKQEPPIDQLPFWVIIPVSGALVLTAVVLYCLACRHVARWKRTRRNEETVGTERLSPIYLGSAQSSG	1
Round 2 CD28F12-5* (ligand) ITPKSVTKRVKETVMLSCDYNTSTEELTSLRIYWQKDSKMVLAILPGKVQVWPEYKNRTITDMNDNPRIVILALRLSDSGTYTCVIQKPDLKGAYKLEHLASVRLMIRADFPVPSITDIGHPAPNVKRIRCSASGDFPEPRLAWMEDGEELNAVNTTVDQDLDTELYSVSSELDFNVTNNHSIVCLIKYGELSVSQIFPWSKPKQEPPIDQLPFWVIIPVSGALVLTAVVLYCLACRHVARWKRTRRNEETVGTERLSPIYLGSAQSSG	1
Round 2 CD28F10-2 (ligand) ITPKSVTKRVKETVMLSCDYNTSTEELTSLRIYWQKDSKMVLAILPGKVQVWPEYKNRTITDMNDNPRIVILALRLSDSGTYTCVIQKPDLKGAYKLEHLTSVRLMIRADFPVPSITDIGHPAPNVKRIRCSASGDFPEPRLAWMEDGEELNAVNTTVDQDLDTELYSVSSELDFNVTNNHSIVCLIKYGELSVSQIFPWSKPKQEPPIDQLPFWVIIPVSGALVLTAVVLYCLACRHVARWKRTRRNEETVGTERLSPIYLGSAQSSG	1
Round 2 CD28C2-4 (ligand) GISQVTKSVKEMAALSCDYNISIDELARMRIYWQKDQQMVLSIISGQVEVWPEYKNRTITDMNDNPRIVILALRLSDSGTYTCVIQKPVLKGAYKPEHLASVRLMIRADFPVPTINDLGNPSPNIRRLICSTSGGFPRPHLYWLENGEELNATNTTLSQDPETKLYMISSELDFNMTSNHSFLCLVKYGDLTVSQTFYWQESKPTPSANQHLTWTIIIPVSAFGISVIIAVILTCLTCRNAAIRRQRRENEVEMQSCSQSP	1
Round 2 CD28D11-1 (ligand) ITPKSVTKRVKETVMLSCDYNTSTEELTSLRIYWQKDSKMVLAILPGKVQVWPEYKNRTITDMNDNPRIVILALRLSDSGTYTCVVQKNENGSFRREHLTSVTLSIRADFPVPSITDIGHPAPNVKRIRCSASGDFPEPRLAWMEDGEELNAVNTTVDQDLDTELYSVSSELDFNVTNNHSIVCLIKYGELSVSQIFPWSKPKQEPPIDQLPFWVIILVSGALVLTAVVLYCLACRHVARWKRTRRNEETVGTERLSPIYLGSAQSSG	2
Round 2 CD28D2-3 (ligand) ITPKSVTKRVKETVMLSCDYNTSTEELTSLRIYWQKDSKMVLAILPGKVQVWPEYKNRTITDMNDNPRIVIQALRLSDSGTYTCVIQKPVLKGAYKLEHLASVRLMIRADFPVPTDLGNPSPNIRRLICSTSGGFPRPHLYWLENGEELNATNTTVSQDPGTELYMISSELDFNVTNNHSIVCLIKYGELSVSQIFPWSKPKQEPPIDQLPFWVIIPVSGALVLTAVVLYCLACRHVARWKRTRRNEETVGTERLSPIYLGSAQSSG	1
Round 2 CD28G1-5 (ligand) SGITPKSVTKRVKETVMLSCDYSTSTEELTSLRIYWQKDSKMVLAILPGKVQVWPEYKNRTFPDIINNLSLMILALRLSDKGTYTCVVQKNENGSFRREHLTSVTLSIRADFPVSSITDIGHPAPNVKRIRCSASGGFPEPRLAWMEDGEELNAVNTTVDQDLDTELYSVSSELDFNVTNNHSIVCLIKYGELSVSQIFPWSKPKQEPPIDQLPFWVIIPVSGALVLTAVVLYCLACRHVARWKRTRRNEETVGTERLSPIYLGSAQSSG	1
Round 2 CD28BP-17 (ligand) SGITPKSVTKRVKETVMLSCDYSTSTEELTSLRIYWQKDSKMVLAILPGKVQVWPEYKNRTFPDIINNLSLMILALRLSDKGTYTCVVQKNENGSFRREHLTSVTLSIRADFPVPSITDIGHPAPNVKRIRCSASGDFPEPRLAWMEDGEELNAVNTTVDQDLDTELYSVSSELDFNVTNNHSIVCLIKYGELSVSQIFPWSKPKQEPPIDQLPFWVIIPVSGALVLTVVVLYCLACRHVARWKRTRRNEETVGTERLSPIYLGSAQSSG	2

More lines, now with the values ahead:

Binding Score	Binder
0	Round 2 CD28A2-5 (ligand) ITPKSVTKRVKETVMLSCDYNTSTEELTSLRIYWQKDSKMVLAILPGKVQVWPEYKNRTITDMNDNPRIVILALRLSDSGTYTCVIQKPDLKGAYKLEHLASVRLMIRADFPVPSITDIGHPAPNVKRIRCSASGGFPEPRLAWMEDGEELNAVNTTVDQDLDTELYSVSSELDFNMTSNHSFLCLVKYGDLTVSQTFYWQESKPTPSANQHLTWTIIIPVSAFGISVIIAVILTCLTCRNAAIRRQRRENEGKCKVLSVSIGTKLKFNR
1	Round 2 CD28H6-6 (ligand) ITPKSVTKRVKETVMLSCDYSTSTEELTSLRIYWQKDSKMVLAILPGKVQVWPEYKNRTITDMNDNPRIVILALRLSDSGTYTCVIQKPVLKGAYKLEHLASVRLMIRADFPVPTINDLGNPSPNIRRLICSGFPRPHLYWLENGEELNATNTTVSQDPGTELYMISSELDFNVTNNHSIVCLIKYGELSVSQIFPWSKPKQEPPIDQLPFWVIIPVSGALVLTAVVLYCLACRHVARWKRTRRNEETVGTERLSPIYLGSAQSSG
0	Round 2 CD28F11-8 (ligand) ITPKSVTKRVKETVMLSCDYNTSTEELTSLRIYWQKDSKMVLAILPGKVQVWPEYKNRTITDMNDNPRIVILALRLSDSGTYTCVIQKPVLKGAYKLEHLTSVRLMIRADFPVPTINDLGNPSPNIRRLICSTSGGFPRPHLYWLENGEELNATNTTLSQDPETKLYMISSELDFNMTSNLCLVKYGDLTVSQTFYWQESKPTPSANQHLTWTIIIPVSAFGISVIIAVILTCLTCRNAAIRRQRRENEVEMQSCSQSP
2	Round 2 CD28BP-11 (ligand) SGITPKSVTKRVKETVMLSCDYNASTEELTSLRIYWQKDSKMVLAILPGKVQVWPEYKNRTITDMNDNPRIVILALRLSDKGTYTCVVQKNENGSFRREHLTSVTLSIRADFPVPSITDIGHPAPNVKRIRCSASGGFPEPRLAWMEDGEELNAVNTTVDQDLDTELYSVSSELDFNVTNNHSIVCLIKYGELSVSQIFPWSKPKQEPPIDQLPFWVIIPVSGALVLTAVVLYCLACRHVARWKRTRRNEETVGTERLSPIYLGSAQSSG
0	Round 2 CD28F3-5 (ligand) SGITPKSVTKRVKETVMLSCDYNTSTEELTSLRIYWQKDSKMVLAILPGKVQVWPEYKNRTITDMNDNPRIVILALRLSDSGTYTCVVQKNENGSFRREHLTSVTLSIRADFPVPSITDIGHPAPNVKRIRCSASGGFPEPRLAWMEDGEELNAVNTTVDQDLDTELYSVSSELDFNVTNNHSIVCLIKYGELSVSQIFPWSKPKQEPPIDQLPFWVIIPVSGALVLTAVVLYCLACRHVARWKRTRRNEETVGTERLSPIYLGSAQSSG
0	Round 2 CD28B4-5* (ligand) SGITPKSVTKRVKETVMLSCDYNTSTEELTSLRIYWQKDSKMVLAILPGKVQVWPEYKNRTITDMNDNPRIVILALRLSDKGTYTCVVQKPDLKGAYKLEHLASVRLMIRADFPVPSITDIGHPAPNVKRIRCSASGGFPEPRLAWMEDGEELNAVNTTVDQDLDTELYSVSSELDFNVTNNHSIVCLIKYGELSVSQIFPWSKPKQEPPIDQLPFWVIIPVSGALVLTAVVLYCLACRHVARWKRTRRNEETVGTERLSPIYLGSAQSSG
